Reference: US20220380441A1 (VIR BIOTECHNOLOGY, published 2022)

Legend:
[1] = target: T1, Human complement component C1q (human, UniProt P02745 23-245; P02746 28-253; P02747 29-245); assay: BLI (Octet RED96), IgG captured on anti-human Fab (CH1) sensors, C1q at 3 µg/ml
T1 construct: also called human C1q; human complement protein C1q

[2] = target: T2, Recombinant human FcγRIIa (H131), His-tagged (human, UniProt P12318 34-218); assay: BLI (Octet RED96), His-tagged FcγR on anti-penta-His sensors, mAb at 2 µg/ml cross-linked with anti-human F(ab')2
T2 construct: also called FcγRIIa allele H131; not shown: C-terminal 6-His tag
T2 sequence (looked up): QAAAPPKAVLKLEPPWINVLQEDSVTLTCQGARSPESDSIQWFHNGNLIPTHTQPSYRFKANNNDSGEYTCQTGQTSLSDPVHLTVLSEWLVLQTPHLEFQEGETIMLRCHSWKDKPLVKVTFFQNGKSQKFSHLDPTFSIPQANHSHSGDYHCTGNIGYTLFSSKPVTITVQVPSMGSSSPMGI

[3] = target: T3, Recombinant human FcγRIIa (R131), His-tagged (human, UniProt P12318 34-218); assay: as above
T3 construct: also called FcγRIIa allele R131
T3 sequence (looked up): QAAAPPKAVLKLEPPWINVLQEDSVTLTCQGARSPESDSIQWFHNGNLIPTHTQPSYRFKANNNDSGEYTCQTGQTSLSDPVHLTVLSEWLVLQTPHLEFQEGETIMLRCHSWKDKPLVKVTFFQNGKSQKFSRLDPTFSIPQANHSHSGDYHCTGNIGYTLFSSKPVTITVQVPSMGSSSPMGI

[4] = target: T4, Recombinant human FcγRIIIa (F158), His-tagged (human, UniProt P08637 17-208); assay: as above
T4 construct: also called FcγRIIIa allele F158; not shown: C-terminal 6-His tag

[5] = target: T5, Recombinant human FcγRIIIa (V158), His-tagged (human, UniProt P08637 17-208); assay: as above
T5 construct: also called FcγRIIIa allele V158; not shown: C-terminal 6-His tag

[6] = target: T6, Recombinant human FcγRIIb, His-tagged (human, UniProt P31994 43-217); assay: as above
T6 construct: not shown: C-terminal 6-His tag
T6 sequence (looked up): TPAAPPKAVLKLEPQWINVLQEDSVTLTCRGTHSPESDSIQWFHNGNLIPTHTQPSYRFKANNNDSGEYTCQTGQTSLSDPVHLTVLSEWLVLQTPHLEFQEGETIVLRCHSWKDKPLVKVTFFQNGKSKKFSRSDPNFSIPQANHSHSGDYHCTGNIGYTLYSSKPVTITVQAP

[7] = target: T1, Human complement component C1q; assay: BLI (Octet RED96), IgG captured on anti-human Fab (CH1) sensors

T5 sequence (P08637 17-208 F176V limits assumed): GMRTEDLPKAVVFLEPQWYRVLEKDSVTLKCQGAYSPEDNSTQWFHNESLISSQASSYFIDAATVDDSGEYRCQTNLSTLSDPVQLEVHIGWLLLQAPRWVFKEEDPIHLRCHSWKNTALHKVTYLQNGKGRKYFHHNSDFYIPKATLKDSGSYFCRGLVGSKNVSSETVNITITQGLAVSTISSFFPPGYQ
T4 sequence (P08637 17-208 limits assumed): as the sequence (P08637 17-208 F176V limits assumed) above, with V160F counted along it
T1 sequence (P02745 23-245 limits assumed, chain 1 of 3): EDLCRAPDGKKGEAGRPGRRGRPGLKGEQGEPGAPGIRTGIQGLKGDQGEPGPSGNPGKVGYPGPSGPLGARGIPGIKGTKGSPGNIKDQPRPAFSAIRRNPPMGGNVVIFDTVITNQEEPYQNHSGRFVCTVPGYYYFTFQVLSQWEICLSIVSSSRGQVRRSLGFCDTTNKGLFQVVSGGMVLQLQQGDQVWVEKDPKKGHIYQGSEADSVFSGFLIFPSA
T1 sequence (P02746 28-253 limits assumed, chain 2 of 3): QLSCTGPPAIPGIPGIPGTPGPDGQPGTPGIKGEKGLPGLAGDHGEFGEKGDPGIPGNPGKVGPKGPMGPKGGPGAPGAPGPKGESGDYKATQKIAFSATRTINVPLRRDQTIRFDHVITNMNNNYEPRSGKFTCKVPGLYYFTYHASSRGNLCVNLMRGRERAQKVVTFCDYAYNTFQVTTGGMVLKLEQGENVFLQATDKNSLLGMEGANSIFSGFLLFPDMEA
T1 sequence (P02747 29-245 limits assumed, chain 3 of 3): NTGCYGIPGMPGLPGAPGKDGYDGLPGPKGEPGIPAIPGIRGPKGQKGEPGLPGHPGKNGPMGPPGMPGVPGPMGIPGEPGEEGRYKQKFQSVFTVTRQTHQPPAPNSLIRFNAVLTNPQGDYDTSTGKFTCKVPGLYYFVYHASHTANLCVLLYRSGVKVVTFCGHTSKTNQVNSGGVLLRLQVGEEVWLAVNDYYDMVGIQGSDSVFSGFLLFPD

B1: HBC34-V35-MLNS (antibody, human IgG1, lambda)
heavy: not shown
light: SYELTQPPSVSVSPGQTVSIPCSGDKLGNKNVAWFQHKPGQSPVLVIYEVKYRPSGIPERFSGSNSGNTATLTISGTQAMDEAAYFCQTFDSTTVVFGGGTRLTVLGQPKAAPSVTLFPPSSEELQANKATLVCLISDFYPGAVTVAWKADSSPVKAGVETTTPSKQSNNKYAASSYLSLTPEQWKSHRSYSCQVTHEGSTVEKTVAPTECS
B1: binds [1]; binds [2]; binds [3]. B1: binds [4]; binds [5]; binds [6].

B2: HBC34-V35-MLNS-GAALIE (antibody, human IgG1, lambda)
heavy: ELQLVESGGGWVQPGGSQRLSCAASGRIFRSFYMSWVRQAPGKGLEWVATINQDGSEKLYVDSVKGRFTISRDNAKNSLFLQMNNLRVEDTAVYYCAAWSGNSGGMDVWGQGTTVSVSSASTKGPSVFPLAPSSKSTSGGTAALGCLVKDYFPEPVTVSWNSGALTSGVHTFPAVLQSSGLYSLSSVVTVPSSSLGTQTYICNVNHKPSNTKVDKKVEPKSCDKTHTCPPCPAPELLAGPSVFLFPPKPKDTLMISRTPEVTCVVVDVSHEDPEVKFNWYVDGVEVHNAKTKPREEQYNSTYRVVSVLTVLHQDWLNGKEYKCKVSNKALPLPEEKTISKAKGQPREPQVYTLPPSRDELTKNQVSLTCLVKGFYPSDIAVEWESNGQPENNYKTTPPVLDSDGSFFLYSKLTVDKSRWQQGNVFSCSVLHEALHSHYTQKSLSLSPGK
light: SYELTQPPSVSVSPGQTVSIPCSGDKLGNKNVAWFQHKPGQSPVLVIYEVKYRPSGIPERFSGSNSGNTATLTISGTQAMDEAAYFCQTFDSTTVVFGGGTRLTVLGQPKAAPSVTLFPPSSEELQANKATLVCLISDFYPGAVTVAWKADSSPVKAGVETTTPSKQSNNKYAASSYLSLTPEQWKSHRSYSCQVTHEGSTVEKTVAPTECS
B2: no binding (tested: 3 µg/ml of purified human C1q) [7]; binds [2]; binds [3]. B2: binds [4]; binds [5].
